Experimental data taken from publication PMC5269673.

How the values were obtained:
[1] = biological target: Gramicidin A; assay: single-channel recording in planar lipid bilayers; gA added to both compartments of a painted DPhPC bilayer; conductive channel = gA dimer; 10 mmol/L HEPES, 1 mol/L KCl, pH 7.4, 23 ± 2 °C, -100 mV; without and with AEA
[2] = biological target: Gramicidin A; assay: single-channel recording in planar lipid bilayers; gA added to both compartments of a painted DOPC bilayer; conductive channel = gA dimer; 10 mmol/L HEPES, 1 mol/L KCl, pH 7.4, 23 ± 2 °C, -100 mV; without and with AEA (up to 3 umol/L) or 3 umol/L 2-AG

Gramicidin A (peptide) was tested, and the fold increase of channel appearance frequency f (f/f control = k1/k1,control) with 3 umol/L AEA over no AEA [1] was 4 fold, the fold increase of open channel lifetime tau (tau control/tau = k-1/k-1,control) with 3 umol/L AEA over no AEA [1] was 1.4 fold and the fold increase of channel appearance frequency f (f/f control = k1/k1,control) with 3 umol/L AEA over no AEA [2] was 7.2 fold. It also gave a fold increase of open channel lifetime tau (tau control/tau = k-1/k-1,control) with 3 umol/L AEA over no AEA [2] of 1.8 fold.
